From doi:10.1101/2023.06.03.543554 (bioRxiv, 2023) come the findings set out here.

The assay concerns the target T1, human G-protein coupled receptor 1 (GPR1), FLAG-BRIL fusion construct for cryo-EM (human, UniProt P46091 1-355).
T1 sequence: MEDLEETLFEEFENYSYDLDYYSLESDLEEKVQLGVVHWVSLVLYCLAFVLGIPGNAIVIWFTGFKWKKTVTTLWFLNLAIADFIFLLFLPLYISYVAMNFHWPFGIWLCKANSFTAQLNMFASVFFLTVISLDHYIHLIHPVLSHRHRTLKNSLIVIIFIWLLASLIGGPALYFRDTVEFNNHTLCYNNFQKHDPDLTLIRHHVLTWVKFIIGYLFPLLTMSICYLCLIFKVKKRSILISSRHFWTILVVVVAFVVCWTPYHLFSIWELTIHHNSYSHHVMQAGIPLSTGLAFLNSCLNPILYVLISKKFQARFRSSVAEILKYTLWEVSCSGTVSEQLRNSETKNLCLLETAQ
In words: cryo-EM structure.

B1: full-length chemerin (21-157) (ligand)
chain: ELTEAQRRGLQVALEEFHKHPPVQWAFQETSVESAVDTPFPAGIFVRLEFKLQQTSCRKRDWKKPECKVRPNGRKRKCLACIKLGSEDKVLGRLVHCPIETQVLREAEEHQETQCLRVQRAGEDPHSFYFPGQFAFS
Consider B1, for which the binding result is “binds”.
